Measured values reported in patent US20130330346A1 (Novartis, published 2013).

Experiments:
Human CXCR2 [1] = biological target: T1, Human CXCR2 (human, UniProt P25025 1-360); experiment: FACS competition vs 3 nM FMAT-Blue Gro-α
T1 construct: Some cell lines carry an N-terminal 3xHA tag; also called hCXCR2; huCXCR2
T1 sequence: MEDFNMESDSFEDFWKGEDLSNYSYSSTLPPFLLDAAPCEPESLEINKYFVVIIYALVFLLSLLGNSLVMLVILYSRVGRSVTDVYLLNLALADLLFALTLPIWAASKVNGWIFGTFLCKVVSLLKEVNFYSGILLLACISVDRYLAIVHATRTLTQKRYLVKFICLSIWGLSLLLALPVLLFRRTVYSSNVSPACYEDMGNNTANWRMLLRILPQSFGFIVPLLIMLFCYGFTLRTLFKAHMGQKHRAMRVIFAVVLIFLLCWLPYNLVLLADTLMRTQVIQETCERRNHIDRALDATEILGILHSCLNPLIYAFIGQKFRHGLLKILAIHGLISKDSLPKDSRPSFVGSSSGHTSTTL
Description: (§1) Multivalent anti-CXCR2Nanobodies were titrated against 3 nM FMAT-Blue-labeled Gro-α in the FACS ligand competition assay on human and cynomolgus CXCR2 (Table 14). On human CXCR2, blocking potencies range between double digit nM and sub-nM whereas on cynomolgus CXCR2, they range between single and double digit nM.

Cynomolgus CXCR2 [2] = biological target: T2, Cynomolgus CXCR2 (cynomolgus, UniProt Q28519 3-353 (rhesus entry)); experiment: FACS competition vs 3 nM FMAT-Blue Gro-α
T2 construct: On transfected HEK293T or RBL-2H3 cells; native on cynomolgus neutrophils in the WBSC assay; also called cCXCR2; cynoCXCR2
T2 chain: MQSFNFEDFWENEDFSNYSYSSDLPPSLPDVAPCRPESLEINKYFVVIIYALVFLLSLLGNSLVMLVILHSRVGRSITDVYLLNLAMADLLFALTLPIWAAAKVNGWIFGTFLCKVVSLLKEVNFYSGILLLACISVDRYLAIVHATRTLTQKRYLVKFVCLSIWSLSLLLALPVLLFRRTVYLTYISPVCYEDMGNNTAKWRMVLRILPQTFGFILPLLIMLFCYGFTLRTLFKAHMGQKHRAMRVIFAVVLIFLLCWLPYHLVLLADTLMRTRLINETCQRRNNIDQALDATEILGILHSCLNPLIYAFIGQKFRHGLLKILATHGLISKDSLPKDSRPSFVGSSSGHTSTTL
Description: as §1

Human CXCR2 [3] = biological target: T1, Human CXCR2; experiment: cell-based or functional assay
Cynomolgus CXCR2 [4] = biological target: T2, Cynomolgus CXCR2; experiment: cell-based or functional assay

Binder | % inhibition of max (Human CXCR2 [1]) | IC50 (Human CXCR2 [1]) | % inhibition of max (Cynomolgus CXCR2 [2]) | IC50 (Cynomolgus CXCR2 [2]) | FLIPR % inhibition of max (Human CXCR2 [3]) | FLIPR IC50 (GRO-α induced calcium release) (Human CXCR2 [3]) | FLIPR % inhibition of max (Cynomolgus CXCR2 [4]) | FLIPR IC50 (GRO-α induced calcium release) (Cynomolgus CXCR2 [4])
CXCR20011 (VHH, Bivalent: two VHH joined by a GlySer linker; also called 97A9-35GS-97A9; not shown: C-terminal c-myc tag and His6 tag coded by pAX100) EVQLVESGGGLVQPGGSLRLSCVASGSIVRINTMGWYRQTPGKQRELVADITSGGNINYIDAVKGRFTISRDNTKNTVYLQMNSLKPEDTAVYYCNAEIVVLVGVWTQRARTGNYWGQGTQVTVSSGGGGSGGGGSGGGGSGGGGSGGGGSGGGGSGGGGSEVQLVESGGGLVQPGGSLRLSCVASGSIVRINTMGWYRQTPGKQRELVADITSGGNINYIDAVKGRFTISRDNTKNTVYLQMNSLKPEDTAVYYCNAEIVVLVGVWTQRARTGNYWGQGTQVTVSS | 99% | 35.2 nM | 60% | 97.4 nM | 100% | 137 nM | – | –
CXCR20027 (bispecific antibody, Two different VHH joined by a GlySer linker; also called 163E3-35GS-163D2; not shown: C-terminal c-myc tag and His6 tag coded by pAX100) EVQLVESGGGLVQPGGSLRLSCVASGRIFSSNAMGWFRQAPGKEREFVAAITWRSGGSAYYADSAKGRFTISRDNAKNTVYLQMNSLKPEDTAVYYCAAGGSSWLSFPPDYWGQGTQVTVSSGGGGSGGGGSGGGGSGGGGSGGGGSGGGGSGGGGSEVQLVESGGGLVQAGGSLRLSCAASGRTFSDYAMGWFRQAPGKEREFVAAITWNGGRVFYTASVKGRFTISRDNAKNTMYLQMNSLKPEDTAVYYCAADKDRRTDYLGHPVAYWGQGTQVTVSS | 100% | 4.9 nM | 97% | 6.42 nM | 100% | 17.8 nM | 100% | 12.7 nM
CXCR20036 (other, Biparatopic: two VHH joined by a GlySer linker; also called 54B12-35GS-163D2; 54B12-163D2; not shown: C-terminal c-myc tag and His6 tag coded by pAX100) EVQLVESGGGLVQAGGSLTLSCAVSGSTFRINTMGWYRRAPGKQRELVAARDRGGYINYVDSVKGRFTVSRDNAKPTMYLQMNSLKPEDTAVYYCHAGTQDRTGRNFDRWGQGTQVTVSSGGGGSGGGGSGGGGSGGGGSGGGGSGGGGSGGGGSEVQLVESGGGLVQAGGSLRLSCAASGRTFSDYAMGWFRQAPGKEREFVAAITWNGGRVFYTASVKGRFTISRDNAKNTMYLQMNSLKPEDTAVYYCAADKDRRTDYLGHPVAYWGQGTQVTVSS | 98% | 0.7 nM | 98% | 2.27 nM | 100% | 7.86 nM | 100% | 4.27 nM
CXCR20018 (other, Two different VHH joined by a GlySer linker; also called 137B7-35GS-97A9; not shown: C-terminal c-myc tag and His6 tag coded by pAX100) EVQLVESGGGLVQPGGSVRLSCVASGIIFRLSALGWTRQGPGKAREWVAGINSDGTTNYADPVKGRFTISRDNAKNTIYLHMDMLKPEDTAVYYCASGKYRGQGTQVTVSSGGGGSGGGGSGGGGSGGGGSGGGGSGGGGSGGGGSEVQLVESGGGLVQPGGSLRLSCVASGSIVRINTMGWYRQTPGKQRELVADITSGGNINYIDAVKGRFTISRDNTKNTVYLQMNSLKPEDTAVYYCNAEIVVLVGVWTQRARTGNYWGQGTQVTVSS | 98% | 1.9 nM | 47% | 50.8 nM | – | – | – | –
CXCR20015 (other, Two different VHH joined by a GlySer linker; also called 2B2-35GS-137B7; not shown: C-terminal c-myc tag and His6 tag coded by pAX100) EVQLVESGGELVQPGGSLRLSCAASGSILTINAMGWYRQAPGKQRELVVRRTRGGSTTYQDSVKGRFTISADIAKKTMYLQMNSLKPEDTAVYYCMLDDRGGVYWGQGTQVTVSSGGGGSGGGGSGGGGSGGGGSGGGGSGGGGSGGGGSEVQLVESGGGLVQPGGSVRLSCVASGIIFRLSALGWTRQGPGKAREWVAGINSDGTTNYADPVKGRFTISRDNAKNTIYLHMDMLKPEDTAVYYCASGKYRGQGTQVTVSS | 99% | 0.7 nM | 81.5% | 99 nM | 100% | 2.78 nM | 100% | 2870 nM
CXCR20029 (other, Biparatopic: two VHH joined by a GlySer linker; also called 163E3-35GS-54B12; not shown: C-terminal c-myc tag and His6 tag coded by pAX100) EVQLVESGGGLVQPGGSLRLSCVASGRIFSSNAMGWFRQAPGKEREFVAAITWRSGGSAYYADSAKGRFTISRDNAKNTVYLQMNSLKPEDTAVYYCAAGGSSWLSFPPDYWGQGTQVTVSSGGGGSGGGGSGGGGSGGGGSGGGGSGGGGSGGGGSEVQLVESGGGLVQAGGSLTLSCAVSGSTFRINTMGWYRRAPGKQRELVAARDRGGYINYVDSVKGRFTVSRDNAKPTMYLQMNSLKPEDTAVYYCHAGTQDRTGRNFDRWGQGTQVTVSS | 98.5% | 1.13 nM | 98.5% | 2.09 nM | 100% | 17.1 nM | 100% | 10.1 nM
CXCR20012 (other, Bivalent: two VHH joined by a GlySer linker; also called 137B7-35GS-137B7; not shown: C-terminal c-myc tag and His6 tag coded by pAX100) EVQLVESGGGLVQPGGSVRLSCVASGIIFRLSALGWTRQGPGKAREWVAGINSDGTTNYADPVKGRFTISRDNAKNTIYLHMDMLKPEDTAVYYCASGKYRGQGTQVTVSSGGGGSGGGGSGGGGSGGGGSGGGGSGGGGSGGGGSEVQLVESGGGLVQPGGSVRLSCVASGIIFRLSALGWTRQGPGKAREWVAGINSDGTTNYADPVKGRFTISRDNAKNTIYLHMDMLKPEDTAVYYCASGKYRGQGTQVTVSS | 99.1% | 0.606 nM | – | – | – | – | – | –
CXCR20016 (other, Two different VHH joined by a GlySer linker; also called 137B7-35GS-2B2; not shown: C-terminal c-myc tag and His6 tag coded by pAX100) EVQLVESGGGLVQPGGSVRLSCVASGIIFRLSALGWTRQGPGKAREWVAGINSDGTTNYADPVKGRFTISRDNAKNTIYLHMDMLKPEDTAVYYCASGKYRGQGTQVTVSSGGGGSGGGGSGGGGSGGGGSGGGGSGGGGSGGGGSEVQLVESGGELVQPGGSLRLSCAASGSILTINAMGWYRQAPGKQRELVVRRTRGGSTTYQDSVKGRFTISADIAKKTMYLQMNSLKPEDTAVYYCMLDDRGGVYWGQGTQVTVSS | 100% | 0.8 nM | 88% | 5.7 nM | 100% | 2.36 nM | 100% | 1100 nM
CXCR20017 (other, Two different VHH joined by a GlySer linker; also called 97A9-35GS-137B7; not shown: C-terminal c-myc tag and His6 tag coded by pAX100) EVQLVESGGGLVQPGGSLRLSCVASGSIVRINTMGWYRQTPGKQRELVADITSGGNINYIDAVKGRFTISRDNTKNTVYLQMNSLKPEDTAVYYCNAEIVVLVGVWTQRARTGNYWGQGTQVTVSSGGGGSGGGGSGGGGSGGGGSGGGGSGGGGSGGGGSEVQLVESGGGLVQPGGSVRLSCVASGIIFRLSALGWTRQGPGKAREWVAGINSDGTTNYADPVKGRFTISRDNAKNTIYLHMDMLKPEDTAVYYCASGKYRGQGTQVTVSS | 99% | 3.4 nM | 73% | 29.5 nM | 100% | 22.9 nM | 100% | 1080 nM
CXCR20013 (bispecific antibody, Biparatopic: two VHH joined by a GlySer linker; also called 2B2-35GS-97A9; not shown: C-terminal c-myc tag and His6 tag coded by pAX100) EVQLVESGGELVQPGGSLRLSCAASGSILTINAMGWYRQAPGKQRELVVRRTRGGSTTYQDSVKGRFTISADIAKKTMYLQMNSLKPEDTAVYYCMLDDRGGVYWGQGTQVTVSSGGGGSGGGGSGGGGSGGGGSGGGGSGGGGSGGGGSEVQLVESGGGLVQPGGSLRLSCVASGSIVRINTMGWYRQTPGKQRELVADITSGGNINYIDAVKGRFTISRDNTKNTVYLQMNSLKPEDTAVYYCNAEIVVLVGVWTQRARTGNYWGQGTQVTVSS | 90% | 0.9 nM | 98.5% | 4.2 nM | 100% | 2.93 nM | 100% | 29.2 nM
CXCR20019 (VHH, Bivalent: two VHH joined by a 9GS linker; also called 2B2-9GS-2B2; not shown: C-terminal c-myc tag and His6 tag coded by pAX100) EVQLVESGGELVQPGGSLRLSCAASGSILTINAMGWYRQAPGKQRELVVRRTRGGSTTYQDSVKGRFTISADIAKKTMYLQMNSLKPEDTAVYYCMLDDRGGVYWGQGTQVTVSSGGGGSGGGSEVQLVESGGELVQPGGSLRLSCAASGSILTINAMGWYRQAPGKQRELVVRRTRGGSTTYQDSVKGRFTISADIAKKTMYLQMNSLKPEDTAVYYCMLDDRGGVYWGQGTQVTVSS | 50.6% | 0.044 nM | 81% | 1.8 nM | – | – | – | –
